Data as given in patent US6979727B2, “Recombinant conglutinin and producing method thereof” (Fuso Pharmaceutical Industries, Ltd., priority 1995, dated 2005).

Key:
Recombinant Conglutinin = target: T1, Recombinant Conglutinin (Bos taurus, UniProt P23805); test: Sugar inhibition of binding to mannan-coated plates (ELISA)
T1 sequence (P23805 211-371): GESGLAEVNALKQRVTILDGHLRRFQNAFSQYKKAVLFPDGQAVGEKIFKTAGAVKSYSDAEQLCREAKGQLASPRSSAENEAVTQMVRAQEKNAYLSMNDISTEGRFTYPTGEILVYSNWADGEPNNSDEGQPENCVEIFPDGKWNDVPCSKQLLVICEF

[1] = target: iC3b on sheep erythrocyte cells (horse (from fresh horse serum)); test: cell-based or functional assay
Hemagglutinin (HA) = conditions: Table 4, Western blotting
Influenza A viruses [2] = format: cell-based, Influenza A virus
Influenza A viruses [3] = test: Neutralization activity of collectins (method of Example 6); format: cell-based, Influenza A virus
Influenza A viruses [4] = test: HI activity of collectins (method of Example 5); format: cell-based, Influenza A virus; conditions: Table 4
A/Ibaraki/1/90(H3N2) [5] = test: Neutralization activities in MDCK cells, PAP staining; format: cell-based, Influenza A virus
A/Ibaraki/1/90(H3N2) [6] = test: Hemagglutination Inhibition (HI) with chick's erythrocytes; format: cell-based, Influenza A virus
[7] = test system: sheep erythrocyte cells with iC3b; test: Conglutination activities, microtiter plate assay system; format: cell-based; conditions: 1% sheep erythrocyte cells with iC3b, 37° C., veronal buffer
Method: Conglutination activities of the recombinant conglutinin and the native conglutinin were evaluated by Microtiter plate assay system. Sheep erythrocyte cells with iC3b were prepared according to the method of Wakamiya et al., (Biochem. Biophys. Res. Comm., Vol. 187, pp. 1270-1278, 1992). Namely, 1% sheep erythrocyte cells with iC3b were prepared by priming with a mixture of ten-fold diluted fresh horse serum and equivalent amount of anti-Forssmann antibody, and incubated at 37° C. for ten minutes.
50 μl of 1% sheep erythrocyte cells with iC3b and 50 μl of the recombinant conglutinin or 50 μl of the native conglutinin was added to the raw veronal buffer or the veronal buffer containing 30 mM N-acetylglucosamine. Then, they were incubated at 37° C. and the conglutination activities thereon were detected. The lowest concentration of the proteins to cause agglutination is regarded as titer of conglutination, then the results are shown in FIG. 8. In FIG. 8, Lane A is the native conglutinin, Lane B is the recombinant conglutinin and Lane C is the recombinant conglutinin containing 30 mM N-acetylglucosamine. Titer of conglutination on the native conglutinin was 0.16 μg/ml, while that of the recombinant conglutinin was 1.3-2.5 μg/ml.

A/Adachi/1/57(H2N2) = format: cell-based, Influenza A virus
A/Suita/1/89(H1N1) = test: Hemagglutination Inhibition (HI) with chick's erythrocytes; format: cell-based, Influenza A virus

OC[C@H]1O[C@H](O[C@H]2[C@H](O)[C@@H](O)[C@H](O)O[C@@H]2CO)[C@H](O)[C@@H](O)[C@@H]1O [Maltose]
IC50 (Recombinant Conglutinin): 25.8 mM

CC(=O)N[C@H]1C(O)O[C@H](CO)[C@@H](O)[C@@H]1O (stereo partly drawn) [N-Acetyl-D-Glucosamine]
IC50 (Recombinant Conglutinin): 0.65 mM

C[C@H](O)[C@@H](O)[C@@H](O)[C@H](O)C=O [L-Fucose]
IC50 (Recombinant Conglutinin): 37.8 mM

OC[C@H]1O[C@@H](O[C@H]2[C@H](O)[C@@H](O)C(O)O[C@@H]2CO)[C@H](O)[C@@H](O)[C@H]1O (stereo partly drawn) [Lactose]
IC50 (Recombinant Conglutinin): > 100 mM

O=C[C@@H](O)[C@@H](O)[C@H](O)[C@H](O)CO [D-Mannose]
IC50 (Recombinant Conglutinin): 12.3 mM

CC(=O)N[C@@H]1C(O)O[C@H](CO)[C@@H](O)[C@@H]1O (stereo partly drawn) [N-Acetyl-D-Mannosamine]
IC50 (Recombinant Conglutinin): 26.6 mM

O=C[C@H](O)[C@@H](O)[C@@H](O)[C@H](O)CO [Galactose]
IC50 (Recombinant Conglutinin): 46.8 mM

C[C@@H](O)[C@H](O)[C@H](O)[C@@H](O)C=O [D-Fucose]
IC50 (Recombinant Conglutinin): 55.3 mM

Native bovine conglutinin (from UniProt P23805 21-371)
Titer of conglutination (lowest concentration of the proteins to cause agglutination) [1]: 0.16 µg/mL

native hMBP: native human mannan-binding protein (hMBP)
HA Binding (Hemagglutinin (HA)): − | Present Method (Influenza A viruses [2]): + | Viral Growth Inhibition Activity (Minimum Protein Concentration) (Influenza A viruses [2]): 0.05 µg/mL | area of the infected focus / viral growth (Influenza A viruses [2]; 0, 0.25 and 0.5 μg/ml, three days, MDCK cells (FIG. 14)): reduced the area of the infected focus in a dose-dependent manner | Viral Growth Inhibition Activity (Influenza A viruses [2]; Table 6, class symbol): + | Neutralization Activity (Minimum Protein Concentration) (Influenza A viruses [3]): > 5 µg/mL | Neutralization Activity (Influenza A viruses [3]; Table 4): − | Neutralization Activity (Influenza A viruses [3]; Table 5, class symbol): − | HI Activity (Influenza A viruses [4]): +

B1: Human Surfactant Protein (hSP-D) Native: native human surfactant protein D (protein, UniProt P35247 21-375, looked up)
Pulmonary …: AEMKTYSHRTMPSACTLVMCSSVESGLPGRDGRDGREGPRGEKGDPGLPGAAGQAGMPGQAGPVGPKGDNGSVGEPGPKGDTGPSGPPGPPGVPGPAGREGPLGKQGNIGPQGKPGPKGEAGPKGEVGAPGMQGSAGARGLAGPKGERGVPGERGVPGNTGAAGSAGAMGPQGSPGARGPPGLKGDKGIPGDKGAKGESGLPDVASLRQQVEALQGQVQHLQAAFSQYKKVELFPNGQSVGEKIFKTAGFVKPFTEAQLLCTQAGGQLASPRSAAENAALQQLVVAKNEAAFLSMTDSKTEGKFTYPTGESLVYSNWAPGEPNDDGGSEDCVEIFTNGKWNDRACGEKRLVVCEF
HA Binding (Hemagglutinin (HA)): + | Present Method (Influenza A viruses [2]): − | Neutralization Activity (Influenza A viruses [3]; Table 4): + | HI Activity (Influenza A viruses [4]): +

B2: Human Surfactant Protein (hSP-D) Recombinant: recombinant human surfactant protein D (protein, UniProt P35247 21-375, looked up)
Pulmonary …: AEMKTYSHRTMPSACTLVMCSSVESGLPGRDGRDGREGPRGEKGDPGLPGAAGQAGMPGQAGPVGPKGDNGSVGEPGPKGDTGPSGPPGPPGVPGPAGREGPLGKQGNIGPQGKPGPKGEAGPKGEVGAPGMQGSAGARGLAGPKGERGVPGERGVPGNTGAAGSAGAMGPQGSPGARGPPGLKGDKGIPGDKGAKGESGLPDVASLRQQVEALQGQVQHLQAAFSQYKKVELFPNGQSVGEKIFKTAGFVKPFTEAQLLCTQAGGQLASPRSAAENAALQQLVVAKNEAAFLSMTDSKTEGKFTYPTGESLVYSNWAPGEPNDDGGSEDCVEIFTNGKWNDRACGEKRLVVCEF
Present Method (Influenza A viruses [2]): − | Neutralization Activity (Influenza A viruses [3]; Table 4): − | HI Activity (Influenza A viruses [4]): −

B3: Native Conglutinin: animal lectin of the calcium-dependent mammalian C-type lectin family existing in bovine serum (protein, UniProt P23805 21-371, looked up)
Conglutinin: AEMTTFSQKILANACTLVMCSPLESGLPGHDGQDGRECPHGEKGDPGSPGPAGRAGRPGWVGPIGPKGDNGFVGEPGPKGDTGPRGPPGMPGPAGREGPSGKQGSMGPPGTPGPKGETGPKGGVGAPGIQGFPGPSGLKGEKGAPGETGAPGRAGVTGPSGAIGPQGPSGARGPPGLKGDRGDPGETGAKGESGLAEVNALKQRVTILDGHLRRFQNAFSQYKKAVLFPDGQAVGEKIFKTAGAVKSYSDAEQLCREAKGQLASPRSSAENEAVTQMVRAQEKNAYLSMNDISTEGRFTYPTGEILVYSNWADGEPNNSDEGQPENCVEIFPDGKWNDVPCSKQLLVICEF
Neutralization Titer (concentration to inhibit half (50%) of the infection) (A/Ibaraki/1/90(H3N2) [5]): 0.08 µg/mL | HA Binding (Hemagglutinin (HA)): + | Present Method (Influenza A viruses [2]): − | Expression Concentration on Hemagglutination Inhibition (HI) (A/Ibaraki/1/90(H3N2) [6]): 0.08 µg/mL | Neutralization Activity (Influenza A viruses [3]; Table 4): + | Titer of conglutination (lowest concentration of the proteins to cause agglutination) [7]: 0.16 µg/mL | Expression Concentration on Hemagglutination Inhibition (HI) (A/Adachi/1/57(H2N2)): >5 µg/mL | HI Activity (Influenza A viruses [4]): + | Expression Concentration on Hemagglutination Inhibition (HI) (A/Suita/1/89(H1N1)): 0.08 µg/mL

B4: Bovine Conglutinin: bovine conglutinin of Table 5; native or recombinant not stated (protein, UniProt P23805 21-371, looked up)
Conglutinin: AEMTTFSQKILANACTLVMCSPLESGLPGHDGQDGRECPHGEKGDPGSPGPAGRAGRPGWVGPIGPKGDNGFVGEPGPKGDTGPRGPPGMPGPAGREGPSGKQGSMGPPGTPGPKGETGPKGGVGAPGIQGFPGPSGLKGEKGAPGETGAPGRAGVTGPSGAIGPQGPSGARGPPGLKGDRGDPGETGAKGESGLAEVNALKQRVTILDGHLRRFQNAFSQYKKAVLFPDGQAVGEKIFKTAGAVKSYSDAEQLCREAKGQLASPRSSAENEAVTQMVRAQEKNAYLSMNDISTEGRFTYPTGEILVYSNWADGEPNNSDEGQPENCVEIFPDGKWNDVPCSKQLLVICEF
Neutralization Activity (Minimum Protein Concentration) (Influenza A viruses [3]): 0.09 µg/mL | Neutralization Activity (Influenza A viruses [3]; Table 5, class symbol): +
